Assay results taken from US20110124572A1, “SYNDECAN-4 IS A REGULATOR OF RAC1-GTP” (priority 2008, published 2011).
Several values for one entry are separate records, joined by “and”; a condition that tells them apart may be missing. Equal entries are not always repeated.

B1: wt-syndecan-4: human syndecan-4 with GFP inserted at position 131, stably expressed in MCF-7 cells (protein)
chain: ESIRETEVIDPQDLLEGRYFSGALPDDEDVVGPGQESDDFELSGSGDLDDLEDSMIGPEVVHPLVPLDNHIPERAGSGSQVPTEPKKLEENEVIPKRISPVEESEDVSNKVSMSSTVQGSNIFERTEVLAALIVGGIVGILFAVFLILLLMYRMKKKDEGSYDLGKKPIYKKAPTNEFYA
modifications: left off: large carriers
notes: human syndecan-4 with GFP inserted at position 131, stably expressed in MCF-7 cells
B2: Ser179Glu: phosphomimetic Ser179 to Glu mutant of human syndecan-4-GFP, expressed in MCF-7 cells (protein, UniProt P31431 19-198, looked up, variant S179E)
Syndecan-4: ESIRETEVIDPQDLLEGRYFSGALPDDEDVVGPGQESDDFELSGSGDLDDLEDSMIGPEVVHPLVPLDNHIPERAGSGSQVPTEPKKLEENEVIPKRISPVEESEDVSNKVSMSSTVQGSNIFERTEVLAALIVGGIVGILFAVFLILLLMYRMKKKDEGEYDLGKKPIYKKAPTNEFYA
modifications: GFP inserted at position 131
notes: phosphomimetic Ser179 to Glu mutant of human syndecan-4-GFP, expressed in MCF-7 cells
B3: Ser179Ala: phosphodefective Ser179 to Ala mutant of human syndecan-4-GFP, expressed in MCF-7 cells (protein, UniProt P31431 19-198, looked up, variant S179A)
Syndecan-4: ESIRETEVIDPQDLLEGRYFSGALPDDEDVVGPGQESDDFELSGSGDLDDLEDSMIGPEVVHPLVPLDNHIPERAGSGSQVPTEPKKLEENEVIPKRISPVEESEDVSNKVSMSSTVQGSNIFERTEVLAALIVGGIVGILFAVFLILLLMYRMKKKDEGAYDLGKKPIYKKAPTNEFYA
modifications: GFP inserted at position 131
notes: phosphodefective Ser179 to Ala mutant of human syndecan-4-GFP, expressed in MCF-7 cells

What was measured:
MCF-7 cells [1] = assay: Cell migration assay (time-lapse) on fibronectin; type: cell-based, human; settings: MCF-7 line expressing the syndecan-4 variant, fibronectin
Method: (§1) The MCF-7 breast adenocarcinoma cells were obtained from ATCC, cultured in DMEM:F12 (Cambrex, Walkersville, Md., USA) supplemented with 10% fetal bovine serum (FBS) (Gibco, Bethesda, Md., USA), otherwise stated. The stably transfected cell lines were propagated in DMEM:F12 medium supplemented with 10% FBS and 200 μg/ml G418 (Cambrex, Walkersville, Md., USA). The cell lines were seeded onto glass coverslips or plastic dishes coated for 2 h with 10 μg/ml fibronectin (Sigma-Aldrich, St. Louis, Mo., USA). Scratch-wound assays were performed on stable transfected Syndecan-4 wild, Ser179Ala and Ser179Glu cells at 80% confluency. The cultures were scratched with a sterile P10 pipette tip 3-4 times in parallel lines. Images were taken 12, 24, 36 and 48 h following wounding.
In the cell migration assay 60% confluent MCF7 cells or the stably transfected lines were stimulated by 1 μM phorbol-12-myristate-13-acetate (PMA; from Sigma-Aldrich St. Louis, Mo., USA), otherwise stated. The images were taken using 10×, 20×0.3 objective at 3-min intervals for 2 h using inverted microscope (Leica) and organized into time-lapse movies in Adobe ImageReady® v. 8.
Results of the previous scratch-wound assay gave a hint that the Ser179Glu cells gained a migratory phenotype. […]

Rac1 = Rac1 GTPase pulldown assay (Rac1-GTP level); type: cell-based, human; settings: for relative Rac1-GTP level: relative to non-treated wt-syndecan-4; for reduction of activated Rac1 (GTP-Rac1) level: Gö6976 treatment
Method: (§2) Rac1 activity was characterised by applying RAC-activation kit purchased from Millipore (Upstate) and it was used according to the manufacturer's prescription. Briefly, p21-binding domain of PAK-1 was fused to agarose beads, which specifically binds to and precipitates Rac-GTP and Cdc42-GTP from cell lysates. Cells were harvested at 70% confluency of 25 ml flasks. The wild type Syndecan-4, Ser179Ala and Ser179Glu cells were treated for 60 minutes with 1 μM PMA (Sigma-Aldrich), or 500 nM rottlerin (Sigma-Aldrich), or 10 nM Gö6976 (Biosource, Camarillo, Calif., USA). The active Rac1 was detected by Western blotting using mouse anti-Rac1 antibody (Upstate). To test whether GST-Pak1-Rac/Cdc42-binding domain could pull syndecan-4 down, the blot was probed with rabbit polyclonal anti-syndecan-4 or mouse monoclonal anti-GFP antibody.

[2] = tested on: GTP-Rac/Cdc42-PAK complex; assay: Pull-down of syndecan-4 by Rac1/CDC42-binding domain of PAK; design: species or system human; settings: PAK-PKB pull-down, no γ-S GTP
Method: as §2
We tested whether the protein complex pulled down with the Rac1/CDC 42-binding domain of PAK (PAK-PKB) used in the Rac1 assay contained syndecan-4. Parallel filter of the Rac1 assay was probed with anti-syndecan-4 or anti-GFP antisera. The syndecan-4-GFP monomers migrating with 55 kDa relative electrophoretic mobility gave strong signals (FIG. 6). The amount of pulled-down syndecan-4 was in accordance with Rac1 level detected in the different syndecan-4 constructs (FIG. 6). […] When γ-S GTP was applied to the cell lysates to equalize the pulled-down Rac1-GTP level there was no difference in the amount of pulled-down syndecan-4 variants (FIG. 6). So, the affinity of the different syndecan-4 mutants is the same to the GTP-Rac/Cdc42-PAK complex. […]
We tested syndecan-4 whether it was pulled down by the Rac1/CDC 42-binding domain of PAK (PAK-PKB) used in the Rac1 assay. The syndecan-4-GFP monomers were detected as a 55 kDa relative electrophoretic mobility band probed with anti-syndecan-4 or anti-GFP antisera. […] The amount of pulled-down syndecan-4 was in accordance with Rac1 level detected in the different syndecan-4 constructs (FIG. 6). […]

MCF-7 cells [3] = assay: Scratch-wound assay; type: cell-based, human; settings: for time to closure of the scratch gap: fibronectin, scratched at 80% confluence
Method: as §1
The wt-syndecan-4, Ser179Ala, and Ser179Glu lines were tested how they close the scratched wound on fibronectin substratum. At 80% confluence the cultures were scratch-wounded and healing was monitored. Still images were captured at the indicated time points (FIG. 1). In monolayers of the wt-syndecan-4 and the Ser179Ala lines the wounds healed from the edges, i.e. progenies of cell division narrowed the scratch but kept tight contact with the cell layer. […] The gaps closed in every case almost at the same time, in 42 hour. There was no difference in the growth rate of the different lines measured by SRB assay (data not shown).

Tiam-1 = biological target: T1, Tiam-1 (Homo sapiens, UniProt Q13009); assay: Immunoprecipitation with anti-Tiam-1; type: binding; settings: for Rac1 in the Tiam-1 precipitate: lysate of cells expressing the variant
T1 construct: we tested whether syndecan-4 can be co-immunoprecipitated by anti-Tiam-1; endogenous in cells; host or cells: MCF-7 lines expressing wt, Ser179Ala or Ser179Glu syndecan-4-GFP (RIPA lysates, GDP- or γ-S-GTP-saturated)
Method: In brief, 70% confluent cultures of 25 mL flask were detached, pelleted and following 2 times washing with PBS. The pellet were lysed in RIPA buffer then centrifuged and the supernatant was pre-cleared by addition of 5 μL of protein A/G-sepharose beads slurry (Pierce) for 2 hours, then the supernatant was incubated with the antibody of interest for 24 hours. 10 μL of protein A/G slurry was added for 2 hours, collected by pulse centrifugation, washed 3 times with lysis buffer, resuspended in 2×SDS loading buffer subjected to SDS-PAGE, followed by immunoblotting with the appropriate antibodies.
Since Tiam-1 is a Rac1-GEF (GTP exchange factor) and it could be pulled down by PAK-PKB (Mendoza-Naranjo et al., 2006) we tested whether syndecan-4 can be co-immunoprecipitated by anti-Tiam-1. The syndecan-4 chimeras were detected by anti-syndecan-4 and anti-GFP antisera at 55 kDa and 90 kDa length, which were correspondent to the monomer and dimmer forms, respectively. Because the co-sedimentation of syndecan-4 by PAK-PKB was GDP-GTP dependent we tested if the GDP or GTP had effect for the amount of the anti-Tiam-1-co-immunoprecipitated syndecan-4 forms.
PDZ domain of Tiam-1 was reported to bind peptides containing amino acid sequence of FYA (Songyang et al., 1997) that is part of the cytoplasmic segment of syndecan-4. Therefore syndecan-4 seemed a good candidate to interact with Tiam-1. In the immunoprecipitate of Tiam-1 syndecan-4 variants were detected by anti-syndecan-4 or anti-GFP antisera at 55 kDa length, which was correspondent to the monomer forms. There was no significant difference in the binding of Tiam-1 and syndecan-4 variants in the GDP or γ-S GTP saturated cases.
Considering that phospho-syndecan-4 down-regulates the Rac1 activity consequently Rac1 was also tested in the Tiam-1 precipitate to study the nature of inhibition. If the Rac1 activity were regulated by direct interaction of syndecan-4 we might expect a trapped intermedier as it was found in the case of Brefeldin A (Renault et al., 2003).

T1 sequence (Q13009 whole entry): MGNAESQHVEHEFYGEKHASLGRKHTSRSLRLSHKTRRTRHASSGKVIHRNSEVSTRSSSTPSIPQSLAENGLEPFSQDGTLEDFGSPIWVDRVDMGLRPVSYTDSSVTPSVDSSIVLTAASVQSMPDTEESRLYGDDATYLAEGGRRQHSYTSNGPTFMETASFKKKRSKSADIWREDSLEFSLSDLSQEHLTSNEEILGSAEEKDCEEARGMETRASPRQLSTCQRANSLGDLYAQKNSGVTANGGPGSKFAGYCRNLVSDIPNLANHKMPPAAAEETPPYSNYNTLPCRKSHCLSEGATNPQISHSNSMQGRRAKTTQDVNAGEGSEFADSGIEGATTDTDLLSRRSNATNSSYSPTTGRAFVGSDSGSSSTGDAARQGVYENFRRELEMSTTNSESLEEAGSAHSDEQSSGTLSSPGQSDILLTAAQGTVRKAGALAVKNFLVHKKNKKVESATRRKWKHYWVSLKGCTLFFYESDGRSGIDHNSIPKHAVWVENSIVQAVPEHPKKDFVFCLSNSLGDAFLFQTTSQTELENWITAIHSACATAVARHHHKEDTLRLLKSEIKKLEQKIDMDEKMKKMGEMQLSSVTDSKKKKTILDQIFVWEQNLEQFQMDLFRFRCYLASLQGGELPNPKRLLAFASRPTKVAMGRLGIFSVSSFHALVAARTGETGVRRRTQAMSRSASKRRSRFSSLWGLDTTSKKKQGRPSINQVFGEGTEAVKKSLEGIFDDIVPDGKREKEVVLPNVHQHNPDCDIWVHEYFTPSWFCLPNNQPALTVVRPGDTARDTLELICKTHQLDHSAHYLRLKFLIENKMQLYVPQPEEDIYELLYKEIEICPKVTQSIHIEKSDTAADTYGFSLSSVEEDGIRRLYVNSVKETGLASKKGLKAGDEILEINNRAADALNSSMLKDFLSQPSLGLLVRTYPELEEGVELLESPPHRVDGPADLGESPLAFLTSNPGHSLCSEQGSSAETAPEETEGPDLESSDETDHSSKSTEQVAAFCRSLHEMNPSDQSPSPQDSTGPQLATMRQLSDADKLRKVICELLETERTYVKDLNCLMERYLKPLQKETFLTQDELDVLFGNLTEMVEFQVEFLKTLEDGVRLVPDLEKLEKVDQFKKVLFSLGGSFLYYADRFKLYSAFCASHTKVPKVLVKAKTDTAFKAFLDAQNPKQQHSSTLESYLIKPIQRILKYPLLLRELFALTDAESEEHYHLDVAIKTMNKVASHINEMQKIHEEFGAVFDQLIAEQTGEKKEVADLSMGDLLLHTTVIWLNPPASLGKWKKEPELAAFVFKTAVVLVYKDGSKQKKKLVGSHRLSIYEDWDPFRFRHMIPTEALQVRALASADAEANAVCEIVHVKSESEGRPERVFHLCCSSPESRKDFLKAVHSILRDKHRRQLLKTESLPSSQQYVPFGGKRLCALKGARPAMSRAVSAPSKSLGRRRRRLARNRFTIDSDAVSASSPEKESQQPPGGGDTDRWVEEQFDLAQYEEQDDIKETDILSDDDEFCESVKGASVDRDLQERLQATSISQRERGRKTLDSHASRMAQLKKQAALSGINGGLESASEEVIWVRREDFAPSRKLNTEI

| Molecule | migration (MCF-7 cells [1]; 1 μM PMA) | relative Rac1-GTP level (Rac1; 10 nM Gö6976 60 min) | relative Rac1-GTP level (Rac1; 1 μM PMA 60 min) | reduction of activated Rac1 (GTP-Rac1) level (Rac1) [fold] | relative Rac1-GTP level (Rac1; nt (non-treated)) | amount of pulled-down syndecan-4, less than from the Ser179Ala line [2] | time to closure of the scratch gap (MCF-7 cells [3]) [h] | syndecan-4 form co-immunoprecipitated by anti-Tiam-1 (Tiam-1; cell lysate saturated by GDP) | Rac1 in the Tiam-1 precipitate (Tiam-1) | migration (MCF-7 cells [1]; nt (non-treated)) [μm/min] | decrease of the Rac1-GTP level (Rac1; expression of the variant, untreated) [fold] | amount of pulled-down syndecan-4 [2] | cell motility in the scratched area (MCF-7 cells [3]; by 12 hours following wounding) | syndecan-4 form co-immunoprecipitated by anti-Tiam-1 (Tiam-1; γ-S GTP saturated lysate) | amount of pulled-down syndecan-4, more than the wt-syndecan-4 [2] |
| --- | --- | --- | --- | --- | --- | --- | --- | --- | --- | --- | --- | --- | --- | --- | --- |
| B1 | 0.3±0.1 μm/min and 0.3 μm/min | 0.25 ± 0.03 | 0.25 and 0.25 ± 0.05 | 4.2±0.4 | 1 | approximately 20% | 42 | dominant | observed |  |  |  |  |  |  |
| B2 |  | 0.06 ± 0.02 | 0.9±0.2 and 0.95 ± 0.06 | 16±2 | 0.6±0.1 |  | 42 |  |  | 0.4±0.1 | 1.5 | hardly detectable | enhanced cell motility | detected abundantly |  |
| B3 |  | 1±0.1 and 1 ± 0.01 | 0.46 ± 0.05 |  | 1.9±0.15 |  | 42 | dominant | observed |  |  |  |  |  | approximately 20% |
